Tests used:
[1] = system: MEFs; assay: BimS-resistant clonogenic survival in MEFs; format: cell-based, mouse
Procedure: The plates were fixed and stained with crystal violet after 1 week and the total area of colonies were counted as above. The SD and P value was calculated from 6 individual plates.
WT, Mfn1- or Mfn2-deficient MEFs were infected or not with IB5 lentivirus, then 1×10^5 cells were plated and transfected with BimS expression plasmid. The plates were fixed and stained with crystal violet after 1 week and the total areas of colonies were measured as above. Mean, SD and P values were calculated from 5 individual plates.
(§1) Cell viability was measured with a Countess™ Automated Cell Counter (Invitrogen) using trypan blue. For the clonogenic survival assay, 293T or MEFs cells were seeded in 6-well plates at 1×10^5 cells/well in a 2-ml volume, transfected with BimS cDNA and incubated for 24 h. Afterwards, the medium was replaced and the cells cultured for 3-4 days. Thereafter, the plates were rinsed with PBS and fixed and stained with a solution containing crystal violet (0.5% w/v) and glutaraldehyde (6% v/v) as described (Franken et al., 2006).

[2] = molecular target: T1, PKM2 (K270M) (Homo sapiens, UniProt P14618, K270M); assay: Pyruvate kinase assay, PKM2 (K270M); format: biochemical; conditions: high concentrations of scFv 5
T1 construct: His (N); made in house; host or cells: Escherichia coli BL21(DE3)
T1 sequence (P14618 whole entry K270M): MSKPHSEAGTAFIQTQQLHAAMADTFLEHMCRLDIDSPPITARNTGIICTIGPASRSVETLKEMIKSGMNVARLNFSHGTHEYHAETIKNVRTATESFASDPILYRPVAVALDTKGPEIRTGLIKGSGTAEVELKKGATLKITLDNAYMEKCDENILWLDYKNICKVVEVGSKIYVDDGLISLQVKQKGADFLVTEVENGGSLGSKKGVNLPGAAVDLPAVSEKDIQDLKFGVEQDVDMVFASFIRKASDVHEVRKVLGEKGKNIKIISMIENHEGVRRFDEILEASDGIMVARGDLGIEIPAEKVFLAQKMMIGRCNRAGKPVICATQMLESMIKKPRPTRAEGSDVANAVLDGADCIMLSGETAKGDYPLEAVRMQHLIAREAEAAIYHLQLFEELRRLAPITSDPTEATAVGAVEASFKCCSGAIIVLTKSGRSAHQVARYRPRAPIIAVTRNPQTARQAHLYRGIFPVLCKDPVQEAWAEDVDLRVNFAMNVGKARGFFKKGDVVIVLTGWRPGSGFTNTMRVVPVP
Procedure: (§2) Activity was measured by Kinase-Glo® Plus Luminescent Kinase Assay kit (promega), using ADP and PEP as substrates), with PKM2 at 50 nM. Shown are values with the basal activity of PKM2 alone subtracted out.
(§3) Pyruvate kinase activity was measured by using Kinase-Glo® Plus Luminescent Kinase Assay kit (Promega). 50-100 nM of purified WT or mutant PKM2 was added in 100 μl assay buffer containing 50 mM Tris pH7.5, 100 mM KCl, 10 mM MgCl2, 200 μM PEP, 200 μM ADP, and 3% DMSO. After a 15-min incubation, Kinase-Glo Plus™ reagent (Promega Corporation, Madison, Wis., USA) was added, according to the manufacturer's instructions. In some cases, 0-40 μM fructose 1,6-bisphosphate (FBP) and 0-150 nM scFv 5 were added.

[3] = molecular target: T2, PKM2 (K422R) (Homo sapiens, UniProt P14618, K422R); assay: Pyruvate kinase assay, PKM2 (K422R); format: biochemical
T2 construct: His; made in house; host or cells: Escherichia coli BL21(DE3) (stated generally for WT and mutant PKM2)
T2 sequence (P14618 whole entry K422R): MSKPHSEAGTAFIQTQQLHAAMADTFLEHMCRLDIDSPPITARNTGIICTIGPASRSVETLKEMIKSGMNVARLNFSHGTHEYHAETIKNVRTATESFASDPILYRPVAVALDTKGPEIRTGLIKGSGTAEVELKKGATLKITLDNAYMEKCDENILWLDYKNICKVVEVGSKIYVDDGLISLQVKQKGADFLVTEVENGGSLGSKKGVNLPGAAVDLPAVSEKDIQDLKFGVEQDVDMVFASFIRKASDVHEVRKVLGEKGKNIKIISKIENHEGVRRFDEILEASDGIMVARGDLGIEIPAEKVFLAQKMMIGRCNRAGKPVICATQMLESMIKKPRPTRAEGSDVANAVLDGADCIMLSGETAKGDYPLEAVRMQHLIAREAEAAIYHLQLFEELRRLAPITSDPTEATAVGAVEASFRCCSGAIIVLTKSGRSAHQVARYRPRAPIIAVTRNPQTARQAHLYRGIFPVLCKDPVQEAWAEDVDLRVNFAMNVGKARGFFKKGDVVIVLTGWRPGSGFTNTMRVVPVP
Procedure: as §2, §3

[4] = molecular target: T3, pyruvate kinase M2 (PKM2) (Homo sapiens, UniProt P14618); assay: Target protein immunoprecipitation (FLAG pull-down, mass spectrometry, immunoblot); format: binding; conditions: Triton X-100 extracts of 293T cells, anti-FLAG beads
T3 construct: some intrabodies precipitated specific cellular proteins; endogenous in cells; host or cells: HEK293T (293T)
T3 sequence (P14618 whole entry): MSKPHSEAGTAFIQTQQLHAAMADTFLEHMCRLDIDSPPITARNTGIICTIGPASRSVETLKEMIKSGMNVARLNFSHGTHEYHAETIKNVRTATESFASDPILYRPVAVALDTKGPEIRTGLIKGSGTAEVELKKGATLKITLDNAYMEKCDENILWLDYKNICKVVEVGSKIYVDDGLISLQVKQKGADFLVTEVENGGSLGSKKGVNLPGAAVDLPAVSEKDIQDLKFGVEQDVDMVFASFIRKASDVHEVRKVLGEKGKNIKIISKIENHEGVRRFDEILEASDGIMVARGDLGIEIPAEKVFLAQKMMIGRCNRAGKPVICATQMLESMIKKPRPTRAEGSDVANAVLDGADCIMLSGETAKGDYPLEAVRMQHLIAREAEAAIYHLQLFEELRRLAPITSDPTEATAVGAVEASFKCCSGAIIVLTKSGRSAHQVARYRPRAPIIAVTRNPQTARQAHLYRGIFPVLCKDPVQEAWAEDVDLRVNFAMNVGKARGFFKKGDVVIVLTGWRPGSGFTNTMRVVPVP
Procedure: FIG. 1 C is a photograph of a non-limiting SDS-PAGE gel with silver stain from an immunoprecipitation assay using antibodies encoded by DNA sequences isolated from FIG. 1B. […] Intrabodies that rescued cells from BimS-induced death were chosen for pull-down analysis as described in Methods. Left panel: Triton™-X-100 (1%) cell extracts were incubated with anti-FLAG beads, then proteins eluted with 3×FLAG peptide and separated by SDS-PAGE with silver stain. Specific bands are marked with dots; some bands (e.g. at 37 and 70 kD) are nonspecific. […] The bands near 25 kD are the scFv polypeptides, whose expression levels varied.
Flag-tagged intrabody was introduced along with a tandem Strep-tag by PCR into the same lentiviral vector used for selection. 293T cells infected with the intrabody lentivirus were incubated at 30° C. for 72 h as described above. After washing with cold PBS, 5×10^8 cells were lysed for 15 minutes on ice in lysis buffer (50 mM Tris HCl, pH 7.4, 150 mM NaCl, 1 mM EDTA, 1% Triton™ X-100). Cell lysates were clarified by centrifugation for 15 minutes at 4° C. at 16,000×g. The total protein content of the soluble fraction was quantified using the BCA assay. For pull-down experiments, 10 mg of protein lysate was incubated with 200 al of EZview™ Red anti-FLAG® M2 Affini-ty Gel (Sigma-Aldrich) for 2 h at 4° C. Beads were washed 3 times in wash buffer (50 mM Tris HCl, pH 7.4, 150 mM NaCl, 1 mM EDTA, 0.1% Triton X-100). Elution was performed under native conditions by competition with 3×FLAG peptide following the manufacturer's protocol. Eluates were used for the second step purification using Strep-Tactin Superflow Plus™ [Qiagen], following the manufacturer's instructions. The final two-step purified protein was used for SDS-PAGE analysis. Bands of interest were cut out from the gel and subjected to in-gel digestion with trypsin (Promega, Fitchburg, Wis., USA) followed by MALDI TOF/TOF mass spectrometry analysis (Biomolecular and Proteomics Mass Spectrometry Facility, University of California at San Diego).

[5] = system: 293T cells; assay: siRNA silencing of PKM2, rescue from BimS killing; format: cell-based, human; conditions: 30 nM PKM2-specific siRNA
Procedure: 5×10^5 cells were incubated per well for 12 h, then cells were either mock-transfected, transfected with 30 nM PKM2-specific siRNA (si M2), or transfected with NF-kB p50-specific siRNA (si p50). After a further 36-h incubation, samples of the same siRNAs were added along with 4 μg of BimS cDNA in fresh medium. Viable cells were counted after another 48-h incubation.
Untreated or IB5-infected 293T cells (5×10^5 per well) were seeded into 6-well plates (Falcon) and transfected with 30 nM siRNA. Lipofectamine™ 2000 (Invitrogen, Carlsbad, Calif., USA) was used for transient transfection according to the manufacturer's protocol. After a 30-h incubation, fresh medium containing 30 nM siRNA and 4 μg/ml BimS expression plasmid was added. Cell viability assay was assayed after a further 36-h incubation. The PKM2-siRNA and control siRNA were purchased from Dharmacon (SiGENOME SMART™ pool hPKM2, Si156, and ONTARGETplus™ non-targeting siRNA #2) (Goldberg and Sharp, 2012).

[6] = system: 293T cells; assay: Clonogenic survival assay after BimS transfection, 293T cells; format: cell-based, human; conditions: 293T cells
Procedure: Control 293T or IB5-expressing cells were incubated with or without 27 µg/ml TEPP-46 for 3 h, then transfected with BimS cDNA in a further 24-h incubation also including TEPP-46 or vehicle. The plates were fixed and stained with crystal violet after 1 week. The total area of colonies (a measure of the total mass of proliferating cells) formed in each well from were quantified using ImageJ software; mean±SEM are shown from 3 independent experiments.
as §1

B1: IB5: intracellularly expressed single-chain antibody (scFv) specific for PKM2, SEQ ID NO: 2; also made as monovalent recombinant scFv in E. coli (protein)
scFv: MAQVQLVETGPGLVKPSETLSLRCTVSGGSFDNYYWNWIRQPPGKGLEYIGYVFPSTGATNYNPSLGSRVTISLDTSKNQFSLTLTSVTTADTAIYYCVRSGHDLWTGSTWFDPWGQWTTVTVSSGGGGSGGGGSGGGGSEIVLTQSPGTLSLSPGERATLSCRASQSVSSSYLAWYQQKPGQAPRLLIYGASSRATGIPDRFSGSGSGTDFTLTISRLEPEDIAVYYCQQRSNWPRTFGQGTKVEIKRGLGGLASVDYKDDDDK
modifications: artificial intrabody clone 5
notes: also made as monovalent recombinant scFv in E. coli
For B1, the “rescue from BimS-induced clonogenic death” value ([1]; Mfn1-deficient MEFs) was “failed to rescue”, the “rescue from BimS-induced death (clonogenic)” value ([1]; Mfn2-null MEFs) was “rescued” and the “rescue from BimS-induced death (clonogenic)” value ([1]; WT MEFs) was “rescued”. The clonogenic survival ([1]; early passage MEFs with PKM2 (K422R)) was “enhanced clonogenic survival”, the clonogenic survival ([1]; later-passage MEFs with PKM2 (K422R)) was “further enhanced” and the “catalytic activity of PKM2 (K270M)” value [2] was “increased the catalytic activity”. The “glycolytic activity of PKM2 (K422R)” value [3] was “stimulated the glycolytic activity of PKM2 (K422R) in a concentration-dependent manner”, the “activity of PKM2 (K422R) compared with WT PKM2” value ([3]; high concentrations of scFv 5) was “at least equal to that of WT PKM2” and the “protein pulled down from cell extracts” value [4] was “pulled down a 55-kD protein now identified as pyruvate kinase M2”. For the same molecule, the “ability to rescue cells from BimS killing after PKM2 silencing” value [5] was “substantial reduction” and the “clonogenic survival despite BimS expression” value [6] was “produced clonogenic survival”.

From patent publication US20200239597A1, “AN ANTI-APOPTOTIC FUNCTION OF PKM2 AND INTRACELLULARLY EXPRESSED SCFV ANTIBODIES” (La Jolla Institute for Allergy and Immunology, priority 2017, published 2020)
